Reference: publication PMC7368258 (Proceedings of the National Academy of Sciences of the …, 2020)

Experiments:
FRET or BRET = molecular target: the molecule itself; assay: FRET or BRET
SEC = molecular target: the molecule itself; assay: SEC

| Protein | stoichiometry N (FRET or BRET) | stoichiometry N (SEC) |
| --- | --- | --- |
| mCER-Prx2(C51S), expressed in HEK293 cells (natural protein) MASGNARIGKPAPDFKATAVVDGAFKEVKLSDYKGKYVVLFFYPLDFTFVSPTEIIAFSNRAEDFRKLGCEVLGVSVDSQFTHLAWINTPRKEGGLGPLNIPLLADVTRRLSEDYGVLKTDEGIAYRGLFIIDGKGVLRQITVNDLPVGRSVDEALRLVQAFQYTDEHGEVCPAGWKPGSDTIKPNVDDSKEYFSKHN | 10 | – |
| recombinant mCER-Prx2 (natural protein) MASGNARIGKPAPDFKATAVVDGAFKEVKLSDYKGKYVVLFFYPLDFTFVCPTEIIAFSNRAEDFRKLGCEVLGVSVDSQFTHLAWINTPRKEGGLGPLNIPLLADVTRRLSEDYGVLKTDEGIAYRGLFIIDGKGVLRQITVNDLPVGRSVDEALRLVQAFQYTDEHGEVCPAGWKPGSDTIKPNVDDSKEYFSKHN | – | 10 |
| recombinant mCER-Prx2(C172S) (natural protein) MASGNARIGKPAPDFKATAVVDGAFKEVKLSDYKGKYVVLFFYPLDFTFVCPTEIIAFSNRAEDFRKLGCEVLGVSVDSQFTHLAWINTPRKEGGLGPLNIPLLADVTRRLSEDYGVLKTDEGIAYRGLFIIDGKGVLRQITVNDLPVGRSVDEALRLVQAFQYTDEHGEVSPAGWKPGSDTIKPNVDDSKEYFSKHN | – | 2 |
| mCER-Prx2(T82E/A85E), expressed in HEK293 cells (natural protein) MASGNARIGKPAPDFKATAVVDGAFKEVKLSDYKGKYVVLFFYPLDFTFVCPTEIIAFSNRAEDFRKLGCEVLGVSVDSQFEHLEWINTPRKEGGLGPLNIPLLADVTRRLSEDYGVLKTDEGIAYRGLFIIDGKGVLRQITVNDLPVGRSVDEALRLVQAFQYTDEHGEVCPAGWKPGSDTIKPNVDDSKEYFSKHN | 2 | – |
| recombinant mCER-Prx2(C51S) (natural protein) MASGNARIGKPAPDFKATAVVDGAFKEVKLSDYKGKYVVLFFYPLDFTFVSPTEIIAFSNRAEDFRKLGCEVLGVSVDSQFTHLAWINTPRKEGGLGPLNIPLLADVTRRLSEDYGVLKTDEGIAYRGLFIIDGKGVLRQITVNDLPVGRSVDEALRLVQAFQYTDEHGEVCPAGWKPGSDTIKPNVDDSKEYFSKHN | – | 10 |
